Experimental findings from patent US20020031761A1, “Binding moieties for human parvovirus B19” (priority 1998, published 2002) are described below.

One assay deals with VP1-VP2 (Human parvovirus B19, UniProt P07299). Put plainly: Relative binding ELISA, constant phage against decreasing amounts of VP1-VP2. Particulars: signal interpolated at VP1-VP2 1:10 dilution; binding data normalized as percent of OD 630 nm. On the procedure: Based on the ELISA data and the sequence similarities within each library, the 18 isolates (Tables 1-3) were selected and evaluated further with respect to their binding characteristics to VP1-VP2. Relative binding of each isolate was studied by ELISA. Each selected phage isolate, held at a constant amount, was contacted with decreasing amounts per well of VP1-VP2, the amounts coating each dextrin well varying from 2 μl down to 0.001 μl. Bound phage were detected as described before using polyclonal anti-phage antibody. […] Using VP1-VP2 at 1:10 dilution as an arbitrary point, a value for the signal was interpolated, and the relative binding strengths are reflected in Tables 1-3, above.

For assay [1], the target named is VP1-VP2 (purified, recombinant B19 capsid proteins VP1 and VP2) (Human parvovirus B19, UniProt P07299). The assay is described as follows: ELISA of individual phage isolates for binding to VP1-VP2. To be noted: phage isolate 10^9 pfu per well; VP1-VP2 2 μl per well on dextrin plates; HRP anti-M13 antibody, TMB. The source says:
For screening libraries to isolate binding moieties for parvovirus B19, a surrogate target was obtained, consisting of purified, recombinant B19 capsid proteins VP 1 and VP2 (VP1-VP2). Suitable preparations of VP1-VP2 can be made according to methods described in U.S. Pat. No. 5,498,413 or WO 91/12269, incorporated herein by reference. Prior to screening against phage display libraries, partially purified VP1-VP2 was immobilized on dextrin-coated microtiter wells (Recti-Bind™; Pierce Chemical Co.) and tested using standard ELISA techniques, to ensure that under the screening conditions there was a low background level of phage recovered.
From convergent screens of phage display libraries, eluted phage were propagated and 376 phage isolates were selected randomly and individually tested for binding to VP1-VP2 by standard ELISA techniques, using a polyclonal anti-phage antibody to detect bound phage. Briefly, VP1-VP2 (2 μl per well) was coated on dextrin plates, blocked with BSA, and individual phage isolates were added to the wells (50 μl, 10^9 pfu per well). After washing, bound phage were incubated with the detection anti-phage antibodies (100 μl per well HRP-conjugated anti-M13 antibody in PBS-Tween (Pharmacia Inc.)). […] The bound antibody was detected by adding 100 μl per well of two-component TMB (tetramethylbenzidine; Kirkegaard & Perry). […]

No end group written: not given here.

In turn, “A F C W L W P G N C L H (AFCWLWPGNCLH; not fully specified; cysteine pairing not given here) [C01]” had a relative binding in the assay with VP1-VP2 of 44. The ELISA signal in assay [1] is listed as 1.5.
